From patent US20100048450A1, “Sumoylation Control Agent and Uses Thereof” (priority 2005, published 2010)
Residues, ends and D or L forms follow the SMILES beside them. *: point of attachment. Cbz = O=C(OCc1ccccc1)*

B1: HLS-5: member of the RING finger B-box Coiled-coil (RBCC) protein family; tested by expression from transfected constructs (protein, listed as Homo sapiens)
chain: MERSPDVSPGPSRSFKEELLCAVCYDPFRDAVTLRCGHNFCRGCVSRCWEVQVSPTCPVCKDRASPADLRTNHTLNNLVEKLLREEAEGARWTSYRFSRVCRLHRGQLSLFCLEDKELLCCSCQADPRHQGHRVQPVKDTAHDFRAKCRNMEHALREKAKAFWAMRRSYEAIAKHNQVEAAWLEGRIRQEFDKLREFLRVEEQAILDAMAEETRQKQLLADEKMKQLTEETEVLAHEIERLQMEMKEDDVSFLMKHKSRKRRLFCTMEPEPVQPGMLIDVCKYLGSLQYRVWKKMLASVESVPFSFDPNTAAGWLSVSDDLTSVTNHGYRVQVENPERFSSAPCLLGSRVFSQGSHAWEVALGGLQSWRVGVVRVRQDSGAEGHSHSCYHDTRSGFWYVCRTQGVEGDHCVTSDPATSPLVLAIPRRLRVELECEEGELSFYDAERHCHLYTFHARFGEVRPYFYLGGARGAGPPEPLRICPLHISVKEELDG

Experiments:
HLS-5 = assay: Confocal microscopy of HLS-5 localisation in COS7 cells; format: cell-based
Excerpt: (A) Confocal microscopy of COS7 cells co-expressing Myc-tagged HLS-5 and GFP-SUMO-1. HLS-5 was detected with anti-Myc antibodies in conjunction with red secondary antibodies and SUMO-1 detected by green fluorescent. (B) Confocal microscopy of COS7 cells co-expressing Myc-tagged HLS-5 and GATA-1. GATA-1 was detected with an anti-GATA-1 antibody and HLS-5 was detected with anti-Myc antibodies in conjunction with red and green fluorescent secondary antibodies respectively. (C) Confocal microscopy of COS7 cells co-expressing myc-tagged HLS-5 in the presence of MG132. HLS-5 was detected with anti-Myc antibodies in conjunction with red fluorescent secondary antibodies
(§1) Also, COS7 cells co-expressing Myc-tagged HLS-5 or a mutant form of HLS-5 lacking its Ring finger (ΔN61) and HA-tagged SUMO1 were analysed in the presence or absence of MG132.
As HLS-5 is located principally within cytoplasmic granules, the effects of Ubc9, PIAS1, MG-132 and SUMO-1 on HLS-5 compartmentalization were investigated. […] However, when the SUMO-1 and HLS-5 were co-expressed, there was a remarkable increase in the amount of HLS5 appearing in the nucleus (FIG. 3A). Therefore SUMO1 promoted translocation of HLS-5 from cytoplasmic granules into the nucleus.

Hela cells = assay: HLS5-induced apoptosis in co-transfected Hela cells; format: cell-based, human; details: HLS5 alone or co-transfected with the named protein
Excerpt: To examine the biological effects of Ubc9, PIAS1 and SUMO-1 on HLS5-induced apoptosis, COS cells and HeLa cells were co-transfected with these molecules and cell death monitored. […] However, the effects of SUMO-1 on cell death induced by HLS5 were less pronounced.

GATA-1 [1] = assay: GATA-1 transactivation luciferase reporter assay in COS cells; format: cell-based
Protocol: (§2) (B and C) Lysates from COS7 cells transfected with Myc-tagged HLS-5 and/or GATA-1, and/or HA-tagged Sumo-1, and/or HA-tagged PIAS1 were immunoblotted (IB) with antibodies to GATA-1, HA or Myc D) COS7 cells were transfected as shown in the presence of pGL3-M1α firefly luciferase reporter construct and pRN-CMV renilla luciferase construct. Relative GATA-1 activity was determined by dividing firefly activity with renilla activity. Amount of DNA used was 200 ng per transfection (+) unless otherwise shown. Samples were performed in duplicate and shown is the mean±range. Data shown are representative of three independent experiments.
The effect of HLS-5 on sumoylated GATA-1 transactivation was then examined using the MIα promoter and luciferase reporter assays. […] These observations contrast with the inhibitory effects of GATA-1 sumoylation on transactivation reported by Collavin et al. (2004, supra). […] These observations are consistent with a modulatory role for HLS5 in sumoylation.

Ubc9 [2] = assay: Immunoblot of Ubc9 levels in COS cells co-expressing HLS-5; format: cell-based; details: co-expression, FIG. 5B
Excerpt: (§3) (A) Hela cells co-expressing Myc-tagged HLS-5 and HA-tagged PIAS1. PIAS1 was detected with an anti-HA antibody and HLS-5 was detected as a GFP fusion protein in conjunction with red and green fluorescent secondary antibodies respectively. (B) COS7 cells transfected with GFP-tagged HLS-5 and/or HA-tagged PIAS1, UBC9 or SUMO-1 and immunoblotted (IB) with antibodies to HA. (C) Lysates from COS7 cells transfected with Different Myc-tagged HLS-5 deletion constructs and HA-tagged-PIAS1, and GFP-tagged Histone 2B as a transfection/Loading control. Samples were immunoblotted (IB) with antibodies to GFP, HA and Myc.
(§4) To investigate whether HLS-5 was a functional E3 ligase, SUMO-1 and HLS-5 were co-expressed in COS cells and total protein sumoylation ascertained by immunoblotting. […] We then investigated which domain of HLS-5 was involved in the elimination of PIAS1 protein expression. […] Thus, HLS-5 altered global protein SUMOylation and reduced intracellular content of SUMO-1, PIAS1 and Ubc9, key components of the SUMOylation machinery and this action is accomplished partly through its B Box & Coiled Coil domain.

Ubc9 [3] = molecular target: T1, Ubc9 (Homo sapiens, UniProt P63279); assay: Yeast two-hybrid binding of HLS-5 to Ubc9; details: yeast 2 hybrid, β-galactosidase filter assay
T1 construct: expressed in transfected cells; host or cells: yeast (two-hybrid)
Protocol: (§5) (A) Full length Ubc9 was examined for binding to various HLS-5 constructs as shown using yeast two-hybrid. Binding was measured by filter assay for β-galactosidase activity. (B) BRET assay of COS7 cells expressing HLS-5. Rluc fusion protein with increasing amounts of GFP-Ubc9 fusion protein. Results presented as BRET ratio. (C) PIAS1 (aa 303-651) fragment isolated from the Y2H screen was assessed for binding to various HLS-5 constructs as shown using yeast two-hybrid. Binding was measured by filter assay for β-galactosidase activity. (D) Lysates from COS7 cells transfected with Myc-tagged HLS-5, HA-tagged PIAS1 and/or GATA-1 were immunoprecipitated (IP) with anti-Myc antibodies and immunoblotted (IB) with antibodies to HA or Myc in the presence and/or absence of NEM/IAA.
A yeast two-hybrid screen for HLS-5 interacting partners identified two proteins involved in the sumoylation pathway viz Ubc9 and PIAS1.
The interaction between HLS-5 and Ubc9 was characterized further by yeast 2 hybrid assays to define important binding domains. […] To confirm that HLS-5 and Ubc9 were genuine binding partners, the interaction was investigated in mammalian cells using bioluminescence resonance energy transfer (BRET), which is able to detect protein:protein interactions in living cells (Xu et al., 1999, Proc Natl Acad Sci USA, 96, 151-156). […]

SUMO-3 = assay: Yeast two-hybrid binding of HLS-5 to SUMO-3; details: liquid β-galactosidase assay
Protocol: (§6) (A) Potential sumoylation sites of HLS-5 are shown. (B) Binding of Hls-5 deletion mutants to full length Sumo-1 was examined in the yeast system by filter assay for β-galactosidase activity. (C) Interaction between Hls-5 and Sumo-1, 2 or 3 was examined using yeast two-hybrid. Binding was assessed using a liquid assay to measure β-galactosidase activity. Samples were measured in triplicate and shown is the mean±standard deviation. (D) Lysates from COS7 cells transfected with Myc-tagged Hls-5, and/or HA-tagged Sumo-1, HA-tagged UBC9, HA-tagged PIAS1 were immunoblotted (IB) with antibodies to Sumo-1 or Myc.
(§7) Since HLS-5 was able to interact with Ubc9 and PIAS1, the possibility that HLS-5 is sumoylated was then examined. Like other RBCC/TRIM family members such as PML (Duprez et al., 1999, J Cell Sci., 112, 381-393; Kamitani et al., 1998, J. Biol. Chem., 273, 26675-26682), HLS-5 has several ΨKxE/D consensus sumoylation sites (FIG. 2a). To determine if HLS-5 was able to bind SUMO-1, the yeast two-hybrid system was employed using several HLS-5 deletion mutants.

SUMO-1 [4] = molecular target: T2, SUMO-1 (Homo sapiens, UniProt P63165); assay: Yeast two-hybrid binding of HLS-5 to SUMO-1
T2 construct: expressed in transfected cells; host or cells: yeast (two-hybrid)
Protocol: as §6, §7

global SUMOylation = assay: Total protein sumoylation by immunoblotting in COS cells co-expressing SUMO-1 and HLS-5; format: cell-based; details: SUMO-1 and HLS-5 co-expressed
Excerpt: as §3, §4

SUMO-1 [5] = assay: Immunoblot of SUMO-1 levels in COS cells co-expressing HLS-5; format: cell-based; details: SUMO-1 and HLS-5 co-expressed, FIG. 5B
Excerpt: as §3, §4

GATA-1 [6] = assay: Co-immunoprecipitation of HLS-5 and GATA-1 in COS cells; format: binding; details: with isopeptidase inhibitors NEM and IAA
Protocol: as §2
The interaction between GATA-1 and HLS5 was then examined biochemically by transfecting COS cells with myc-tagged HLS-5 and GATA-1, followed by immunoprecipitation and immunoblotting.

Ubc9 [7] = molecular target: T1, Ubc9; assay: BRET assay of HLS-5 and Ubc9 in COS cells; format: binding; details: HLS-5 and Ubc9 constructs co-expressed in COS cells
Protocol: as §5
The interaction between HLS-5 and Ubc9 was characterized further by yeast 2 hybrid assays to define important binding domains. […] To confirm that HLS-5 and Ubc9 were genuine binding partners, the interaction was investigated in mammalian cells using bioluminescence resonance energy transfer (BRET), which is able to detect protein:protein interactions in living cells (Xu et al., 1999, Proc Natl Acad Sci USA, 96, 151-156). […] However, this interaction may well be transient as the two molecules could not be co-immunoprecipitate (data not shown). […]

PIAS1 [8] = molecular target: T3, PIAS1 (Homo sapiens, UniProt O75925); assay: Co-immunoprecipitation of HLS-5 and PIAS1 in COS cells; format: binding; details: when GATA-1 was present
T3 construct: HA; expressed in transfected cells; host or cells: COS7
Protocol: as §5
As PIAS1 mainly is a nuclear protein (Tan et al., 2000, Mol Endocrinol, 14, 14-26), and HLS-5 is primarily cytoplasmic, the failure of these molecules to interact may be caused by subcellular separation. Since GATA-1 promotes nuclear re-localization of HLS-5 (see below and FIG. 3b) it was included in co-transfections with HLS5 and PIAS1. […] It is postulated that the redistribution of HLS-5 induced by GATA-1 enabled nuclear access and binding to PIAS1 or that GATA-1, HLS-5 and PIAS1 form a protein complex required for this interaction.

SUMO-2 = assay: Yeast two-hybrid binding of HLS-5 to SUMO-2; details: liquid β-galactosidase assay
Protocol: as §6, §7

PIAS1 [9] = assay: Immunoblot of PIAS1 levels in COS cells co-expressing HLS-5 or deletion mutants; format: cell-based; details: co-expression with HA-tagged PIAS1, FIG. 5B/5C
Excerpt: as §3, §4

SUMOylated substrate = SUMOylated substrate co-immunoprecipitating with Myc-tagged HLS-5 in COS7 cells; format: cell-based; details: HA-tagged SUMO1, in the presence of MG132, FIG. 6A
Protocol: (A) COS7 cells co-expressing Myc-tagged HLS-5 or a mutant form of HLS5 lacking its Ring finger (ΔN61) and HA-tagged SUMO1 in the presence or absence of MG132. SUMOylated substrate was detected with an anti-HA antibody and HLS-5 was immunoprecipitated by using a Myc antibodies respectively.
as §1

T1 sequence (P63279 whole entry, species assumed): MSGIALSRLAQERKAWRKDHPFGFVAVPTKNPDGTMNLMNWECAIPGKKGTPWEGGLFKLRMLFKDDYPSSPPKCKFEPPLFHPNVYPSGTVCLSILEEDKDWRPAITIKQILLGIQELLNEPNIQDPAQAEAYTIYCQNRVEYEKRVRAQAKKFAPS
T3 sequence (O75925 whole entry, species assumed): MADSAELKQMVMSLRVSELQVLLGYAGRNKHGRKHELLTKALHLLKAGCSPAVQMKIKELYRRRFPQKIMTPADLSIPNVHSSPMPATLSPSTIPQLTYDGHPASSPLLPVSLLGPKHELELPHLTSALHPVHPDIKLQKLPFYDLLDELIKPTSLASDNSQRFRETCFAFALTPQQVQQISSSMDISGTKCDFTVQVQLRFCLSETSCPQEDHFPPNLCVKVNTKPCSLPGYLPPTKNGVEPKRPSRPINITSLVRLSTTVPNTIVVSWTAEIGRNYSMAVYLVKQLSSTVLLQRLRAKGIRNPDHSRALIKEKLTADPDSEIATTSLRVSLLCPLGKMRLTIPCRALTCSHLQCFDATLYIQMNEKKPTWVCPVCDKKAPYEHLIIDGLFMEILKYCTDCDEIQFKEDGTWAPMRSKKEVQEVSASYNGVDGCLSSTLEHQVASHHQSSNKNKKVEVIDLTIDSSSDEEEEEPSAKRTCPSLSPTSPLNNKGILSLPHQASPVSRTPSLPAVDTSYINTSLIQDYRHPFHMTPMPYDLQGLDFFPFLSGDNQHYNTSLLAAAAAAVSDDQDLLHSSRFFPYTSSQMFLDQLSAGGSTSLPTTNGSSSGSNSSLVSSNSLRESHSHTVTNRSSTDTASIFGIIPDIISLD
T2 sequence (P63165 whole entry, species assumed): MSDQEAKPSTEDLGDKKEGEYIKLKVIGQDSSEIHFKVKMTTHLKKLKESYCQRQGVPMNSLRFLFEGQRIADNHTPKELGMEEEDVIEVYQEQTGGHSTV

Molecule | translocation of HLS-5 from cytoplasmic granules into the nucleus (HLS-5; COS7 cells) | effect on HLS-5 accumulation (HLS-5; COS7 cells expressing myc-tagged HLS-5, FIG. 3C) | apoptosis / cell death caused by HLS5 (Hela cells) | GATA-1 activity (GATA-1 [1]; co-expression with SUMO-1) | GATA-1 transactivation (GATA-1 [1]; in the presence of both SUMO-1 and PIAS1) | Ubc9 protein level (Ubc9 [2]) | association with Ubc9 (Ubc9 [3]) | binding to SUMO-3 (SUMO-3) | interaction with SUMO-1 (SUMO-1 [4]) | overall sumoylation (global SUMOylation) | reduction of the levels of SUMO-1 (SUMO-1 [5]) [%] | co-immunoprecipitation with GATA-1 (GATA-1 [6]) | BRET ratio (Ubc9 [7]) | co-immunoprecipitation with PIAS1 (PIAS1 [8]) | binding to SUMO-2 (SUMO-2) | PIAS1 protein level (PIAS1 [9]) | SUMOylated substrate detected with anti-HA antibody (SUMOylated substrate)
CC(C)C[C@@H](C=O)NC(=O)[C@H](CC(C)C)NC(=O)[C@H](CC(C)C)NC(=O)OCc1ccccc1 [MG132] (Cbz-Leu-Leu-Leu-aldehyde) | translocation was also observed | accumulation of HLS-5 | – | – | – | – | – | – | – | – | – | – | – | – | – | – | –
Ubc9: E2 enzyme in the SUMO-1 conjugation pathway | – | – | 12 % of cells | – | – | – | – | – | – | – | – | – | – | – | – | – | –
B1 | – | – | 60 % of cells | decreased GATA-1 activity | suppressed GATA-1 transactivation | reduced the levels of Ubc9 | able to associate with Ubc9 | neither SUMO-2, nor SUMO-3 bound | could interact with SUMO-1 | reduced | > 95 | GATA-1 was detected in HLS-5 immunoprecipitates | positive BRET ratio | could co-immunoprecipitate | neither SUMO-2, nor SUMO-3 bound | almost complete elimination of PIAS1 | SUMOylated substrate detected
